Test results reported in patent US20230287598A1.
“And” between values parts separate entries of the source, which are not always exact repeats. Identical values can stand only once. Like-named read-outs stand apart in the source and are kept apart here.

Experiments:
[1] = biological target: CXCR1 (UniProt P25024); test: flow cytometry, CXCR1-U2OS / parental U2OS; HC BLV1H12+CDR3-IL8
[2] = biological target: CXCR1 (UniProt P25024); test: cell-based or functional assay
[3] = biological target: CXCR1 (UniProt P25024); test: flow cytometry on CXCR1-U2OS cells, supernatant IgG (parental U2OS: 76)
[4] = biological target: CXCR1 (UniProt P25024); test: cell-based or functional assay; remark: listed apart in the source
[5] = biological target: Kv1.3 (human) (UniProt P22001); test: cell-based or functional assay
Sequence of Kv1.3 (human) (P22001 whole entry): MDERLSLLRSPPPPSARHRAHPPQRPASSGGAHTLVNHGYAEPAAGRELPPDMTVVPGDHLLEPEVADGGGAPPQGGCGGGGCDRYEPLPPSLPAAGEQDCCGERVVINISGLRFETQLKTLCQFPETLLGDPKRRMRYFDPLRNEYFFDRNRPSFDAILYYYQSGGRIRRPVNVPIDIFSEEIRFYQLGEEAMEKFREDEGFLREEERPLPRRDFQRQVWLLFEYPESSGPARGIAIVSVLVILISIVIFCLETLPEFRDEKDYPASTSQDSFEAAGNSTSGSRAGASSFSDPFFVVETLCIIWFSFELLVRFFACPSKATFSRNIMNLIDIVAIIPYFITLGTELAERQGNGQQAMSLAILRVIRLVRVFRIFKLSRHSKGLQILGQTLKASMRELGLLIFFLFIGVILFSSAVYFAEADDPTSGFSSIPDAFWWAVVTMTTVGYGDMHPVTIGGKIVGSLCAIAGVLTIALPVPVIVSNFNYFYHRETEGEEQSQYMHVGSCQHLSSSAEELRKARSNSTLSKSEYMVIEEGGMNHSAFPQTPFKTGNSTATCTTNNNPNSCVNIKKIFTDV

Sequence of CXCR1 (P25024 whole entry): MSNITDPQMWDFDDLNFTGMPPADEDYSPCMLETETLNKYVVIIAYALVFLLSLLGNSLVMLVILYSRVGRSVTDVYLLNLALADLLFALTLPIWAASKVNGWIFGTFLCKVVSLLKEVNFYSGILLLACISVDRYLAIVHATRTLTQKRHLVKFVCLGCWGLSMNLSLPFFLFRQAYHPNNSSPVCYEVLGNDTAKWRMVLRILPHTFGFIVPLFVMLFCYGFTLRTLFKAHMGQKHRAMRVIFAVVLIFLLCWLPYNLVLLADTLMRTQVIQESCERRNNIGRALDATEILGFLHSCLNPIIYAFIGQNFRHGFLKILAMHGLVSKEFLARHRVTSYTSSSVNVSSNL
Sequence of IL-8 (P10145 28-99 limits assumed): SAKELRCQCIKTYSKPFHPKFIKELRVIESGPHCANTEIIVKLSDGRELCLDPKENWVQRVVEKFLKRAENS
Sequence of soluble IL-8 (P10145 28-99 limits assumed): as above

“BLV1H12+CDR3-IL8 / BLV1H12 light chain (SEQ ID NO: 412) IgG (antibody)” was tested, and the FACS CXCR1/Parental Ratio [1] was 5.
For BLV1H12+CDR3-IL8 IgG (antibody), the CXCR1 activation, average RLU at 0.001 nM IgG [2] was 7440 RLU, the CXCR1 activation, average RLU at 0.004 nM IgG [2] was 7240 RLU and the CXCR1 activation, average RLU at 0.01 nM [2] was 435 RLU. It also gave a CXCR1 activation, average RLU at 0.013 nM IgG [2] of 7330 RLU, a CXCR1 activation, average RLU at 0.040 nM IgG [2] of 7740 RLU and a CXCR1 activation, average RLU at 0.08 nM [2] of 822 RLU. For the same substance, the CXCR1 activation, average RLU at 0.120 nM IgG [2] was 8870 RLU, the CXCR1 activation, average RLU at 0.23 nM [2] was 1520 RLU and the CXCR1 activation, average RLU at 0.359 nM IgG [2] was 13300 RLU. It also gave a CXCR1 activation, average RLU at 0.69 nM [2] of 2650 RLU, a CXCR1 activation, average RLU at 1.076 nM IgG [2] of 23700 RLU and a CXCR1 activation, average RLU at 2.06 nM [2] of 3640 RLU. It also gave a CXCR1 activation, average RLU at 3.228 nM IgG [2] of 34500 RLU, a CXCR1 activation, average RLU at 6.17 nM [2] of 4430 RLU and a CXCR1 activation, average RLU at 9.685 nM IgG [2] of 39300 RLU. The CXCR1 activation, average RLU at 18.52 nM [2] was 5070 RLU, the CXCR1 activation, average RLU at 29.056 nM IgG [2] was 47600 RLU and the CXCR1 activation, average RLU at 55.56 nM [2] was 5510 RLU. For the same substance, the CXCR1 activation, average RLU at 87.167 nM IgG [2] was 52100 RLU, the CXCR1 activation, average RLU at 166.67 nM [2] was 6210 RLU and the CXCR1 activation, average RLU at 261.500 nM IgG [2] was 56300 RLU. The CXCR1 activation, average RLU at 500.00 nM [2] was 6640 RLU and the Median Arbitrary Fluorescence Units (AFU) [3] was 707 AFU.
BLV1H12-IL8 (antibody) showed a CXCR1 activation, luminescence, 0.1 nM IL-8 domains [2] of 4520 luminescence, a CXCR1 activation, luminescence, 0.5 nM IL-8 domains [2] of 9940 luminescence and a CXCR1 activation, luminescence, 2.2 nM IL-8 domains [2] of 17600 luminescence. The CXCR1 activation, luminescence, 9.9 nM IL-8 domains [2] was 25300 luminescence, the CXCR1 activation, luminescence, 44 nM IL-8 domains [2] was 32600 luminescence and the CXCR1 activation, luminescence, 200 nM IL-8 domains [2] was 32200 luminescence.
“IL-8 (from UniProt P10145 28-99) (ligand)” was tested, and the CXCR1 activation, average RLU at 0.01 nM [2] was 440 RLU, the CXCR1 activation, average RLU at 0.08 nM [2] was 504 RLU and the CXCR1 activation, average RLU at 0.23 nM [2] was 940 RLU. For the same substance, the CXCR1 activation, average RLU at 0.69 nM [2] was 1940 RLU, the CXCR1 activation, average RLU at 2.06 nM [2] was 4110 RLU and the CXCR1 activation, average RLU at 6.17 nM [2] was 5870 RLU. It also gave a CXCR1 activation, average RLU at 18.52 nM [2] of 7300 RLU, a CXCR1 activation, average RLU at 31.5 nM [2] of 55500 RLU and a CXCR1 activation, average RLU at 55.56 nM [2] of 7360 RLU. The CXCR1 activation, average RLU at 166.67 nM [2] was 6770 RLU, the CXCR1 activation, average RLU at 500.00 nM [2] was 5720 RLU and the CXCR1 activation, luminescence at 0.4 nM IL-8 domains [2] was 4930. It also gave a CXCR1 activation, luminescence at 1.6 nM IL-8 domains [2] of 8730, a CXCR1 activation, luminescence at 6.25 nM IL-8 domains [2] of 22300 and a CXCR1 activation, luminescence at 25 nM IL-8 domains [2] of 42200. The CXCR1 activation, luminescence at 100 nM IL-8 domains [2] was 54000, the CXCR1 activation, luminescence at 0.4 nM IL-8 domains [4] was 6530 and the CXCR1 activation, luminescence at 1.6 nM IL-8 domains [4] was 12200. It also gave a CXCR1 activation, luminescence at 6.25 nM IL-8 domains [4] of 28600, a CXCR1 activation, luminescence at 25 nM IL-8 domains [4] of 50500 and a CXCR1 activation, luminescence at 100 nM IL-8 domains [4] of 70200.
“IgG VH4-4 CDR3 BsaI (lacking the IL-8 insert) (antibody)” gave a CXCR1 activation, average RLU at 0.001 nM IgG [2] of 7500 RLU, a CXCR1 activation, average RLU at 0.004 nM IgG [2] of 7390 RLU and a CXCR1 activation, average RLU at 0.013 nM IgG [2] of 7050 RLU. The CXCR1 activation, average RLU at 0.040 nM IgG [2] was 6970 RLU, the CXCR1 activation, average RLU at 0.120 nM IgG [2] was 7330 RLU and the CXCR1 activation, average RLU at 0.359 nM IgG [2] was 6690 RLU. For the same substance, the CXCR1 activation, average RLU at 1.076 nM IgG [2] was 7180 RLU, the CXCR1 activation, average RLU at 3.228 nM IgG [2] was 7030 RLU and the CXCR1 activation, average RLU at 9.685 nM IgG [2] was 7170 RLU. The CXCR1 activation, average RLU at 29.056 nM IgG [2] was 7100 RLU, the CXCR1 activation, average RLU at 87.167 nM IgG [2] was 7140 RLU and the CXCR1 activation, average RLU at 261.500 nM IgG [2] was 7540 RLU.
For Negative Control IgG (antibody), the IL-2 ELISA (A450), Donor 1, 0.01 nM IgG [5] was 2 A450 and 2.15 A450, the IL-2 ELISA (A450), Donor 1, 0.75 nM IgG [5] was 2.11 A450 and 2.04 A450 and the IL-2 ELISA (A450), Donor 1, 68 nM IgG [5] was 1.48 A450 and 1.55 A450. For the same substance, the IL-2 ELISA (A450), Donor 2, 0.01 nM IgG [5] was 1.61 A450 and 1.48 A450, the IL-2 ELISA (A450), Donor 2, 0.75 nM IgG [5] was 1.56 A450 and 1.52 A450 and the IL-2 ELISA (A450), Donor 2, 68 nM IgG [5] was 1.5 A450 and 1.37 A450. The TNF-α ELISA (A450), Donor 1, 0.01 nM IgG [5] was 1.62 A450 and 1.66 A450, the TNF-α ELISA (A450), Donor 1, 0.75 nM IgG [5] was 1.69 A450 and 1.65 A450 and the TNF-α ELISA (A450), Donor 1, 68 nM IgG [5] was 1.02 A450 and 1.13 A450. The TNF-α ELISA (A450), Donor 2, 0.01 nM IgG [5] was 2.07 A450 and 1.77 A450, the TNF-α ELISA (A450), Donor 2, 0.75 nM IgG [5] was 2.04 A450 and 1.85 A450 and the TNF-α ELISA (A450), Donor 2, 68 nM IgG [5] was 1.88 A450 and 1.54 A450.
With “soluble IL-8 (from UniProt P10145 28-99) (ligand)” the CXCR1 activation, luminescence, 0.1 nM IL-8 domains [2] was 4200 luminescence, the CXCR1 activation, luminescence, 0.5 nM IL-8 domains [2] was 9790 luminescence and the CXCR1 activation, luminescence, 2.2 nM IL-8 domains [2] was 25700 luminescence. For the same substance, the CXCR1 activation, luminescence, 9.9 nM IL-8 domains [2] was 50300 luminescence, the CXCR1 activation, luminescence, 44 nM IL-8 domains [2] was 54100 luminescence and the CXCR1 activation, luminescence, 200 nM IL-8 domains [2] was 50400 luminescence.
